Assay results published in paper PMC10770331, “The virulence regulator VirB from Shigella flexneri uses a CTP-dependent switch mechanism to activate gene expression” (Nature Communications, 2024).
Substitutions are numbered along the chain they refer to. Names may count otherwise.

Key:
[1] = molecular target: T1, VirB (Shigella flexneri, UniProt P0A247); assay: isothermal titration calorimetry (MST KD […]); format: binding
T1 construct: purified recombinant wild-type VirB, His6-SUMO tag removed; encoded on virulence plasmid pINV

[2] = molecular target: T1, VirB; assay: microscale thermophoresis; supported by HDX-MS, crosslinking and weak CTPase activity; format: binding
[3] = molecular target: T1, VirB; assay: isothermal titration calorimetry; format: binding
[4] = molecular target: T2, VirB (Shigella flexneri) (UniProt P0A247); assay: BLI; details: BLI: 25 mM HEPES/NaOH pH 7.5, 150 mM (low stringency) or 500 mM (high stringency) NaCl, 5 mM MgCl2, 1 mM DTT, 10 uM BSA, 0.01% Tween 20, +/-1 mM nucleotide …
T2 sequence: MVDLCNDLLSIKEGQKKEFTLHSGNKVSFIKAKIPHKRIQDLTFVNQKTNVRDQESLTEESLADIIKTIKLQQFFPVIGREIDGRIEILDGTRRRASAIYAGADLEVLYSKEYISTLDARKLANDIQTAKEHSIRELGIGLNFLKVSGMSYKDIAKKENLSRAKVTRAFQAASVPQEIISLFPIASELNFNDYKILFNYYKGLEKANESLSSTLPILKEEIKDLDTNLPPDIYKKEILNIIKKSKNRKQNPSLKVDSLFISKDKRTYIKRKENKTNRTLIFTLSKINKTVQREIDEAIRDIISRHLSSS

[5] = molecular target: the molecule itself; assay: mass photometry; ~100 nM protein in high-stringency buffer (25 mM HEPES/NaOH pH 7.5, 5 mM MgCl2, 500 mM NaCl, 1 mM DTT), without or with 1 mM CTP; oligomeric state in solution
[6] = molecular target: the molecule itself; assay: cross-linking; 10 µM protein, room temperature, 25 mM HEPES/NaOH pH 7.5, 500 mM NaCl, 5 mM MgCl2, 0.1 mM EDTA; alone, with 1 mM CTP and/or 1 µM virS DNA oligonucleotide; 1 mM BMOE for 1 min, SDS-PAGE; homodimerization of the two N-terminal NBDs within the VirB dimer (clamp closure)
[7] = molecular target: T3, VirB (Shigella flexneri, UniProt P0A247 1-309); assay: BLI; 150 mM NaCl, without and with CTP; BLI: 25 mM HEPES/NaOH pH 7.5, 150 mM (low stringency) or 500 mM (high stringency) NaCl, 5 mM MgCl2, 1 mM DTT, 10 uM BSA, 0.01% Tween 20, +/-1 mM nucleotide; temperature not stated; details: protein: recombinant; tags: none (His6-SUMO removed by Ulp1); chain copies: 2; label: 5' biotin-TEG on strand 1; blunt; one end open
T3 sequence: T2 sequence

Nc1ccn([C@@H]2O[C@H](COP(=O)(O)OP(=O)(O)O)[C@@H](O)[C@H]2O)c(=O)n1 [CDP]
Kd [1]: ~91 µM

Nc1ccn([C@@H]2O[C@H](COP(=O)(O)OP(=O)(O)OP(=O)(O)O)[C@@H](O)[C@H]2O)c(=O)n1 [CTP]
Kd [2]: 11 µM

Nc1ccn([C@@H]2O[C@H](COP(=O)(O)OP(=O)(O)OP(O)(O)=S)[C@@H](O)[C@H]2O)c(=O)n1 [CTPγS]
Kd [3]: ~12 µM

AATATATTCAATTAATAAATTTAGAAACTTGAGCCTGTTAACATAATCAAATTTTCTTTTGCTGTACATAATATGTACCTCGTGAGCATATGTAGTGCTCGTTTCATCATGAAATCCCACAAGATAAAGTGCCTGATGTATCAGGCTCGGAGTGTTATAGAAAAAGAGAGAACCCTGTTGAATAAGTATCTTTTTTGTTGTAAAACGAGGTACAA (double strand) [closed virS DNA (215 bp)]
Kd [4]: 2.3 µM

NdeI-opened virS DNA (from 215 bp)
binding signal (fraction of maximum signal on closed DNA) [4]: 0.25

B1: VirB from Shigella flexneri (wild type) (natural protein)
chain: T2 sequence
notes: VirB of S. flexneri, UniProt P0A247; Native C5 was used for BMOE cross-linking; also called WT; wild-type VirB; source: E. coli Rosetta(DE3)pLysS, purified (IMAC, Ulp1 cleavage of the His6-SUMO tag, second IMAC, SEC); not shown: His6, N-terminal, cleaved; SUMO, N-terminal, cleaved
stoichiometry N [5]: 2

B2: VirB-C5S/Q15C (natural protein)
chain: T2 sequence with C5S, Q15C
notes: VirB of S. flexneri, UniProt P0A247, lacking the native cysteine at position 5 and carrying an engineered cysteine at position 15; source: E. coli Rosetta(DE3)pLysS, purified (IMAC, Ulp1 cleavage of the His6-SUMO tag, second IMAC, SEC); not shown: His6, N-terminal, cleaved; SUMO, N-terminal, cleaved
binding result [6]: binds

B3: open virS oligonucleotide (23 bp) (dsDNA)
DNA 1: GCTCGTTTCATCATGAAATCCCA
DNA 2: TGGGATTTCATGATGAAACGAGC
binding result [7]: binds
